Data published in patent publication US20250369982A1, “METHODS OF DETECTING DDR1 PHOSPHORYLATION” (IncendiaTherapeutics, Inc., priority 2022, published 2025).
Where two headings read alike, the source gives them in different places. One block for each molecule: values may come before it.

Legend:
[1] = Pharmacokinetic profiles of anti-DDR1 mAbs in mice (ELISA of circulating antibody); assay type: in vivo, mouse; conditions: female C57B16JrJ mice, intraperitoneal, 10 mg/kg; for Cmax: circulating free and partially bound antibody
Description: To evaluate the pharmacokinetic profiles of anti-DDR1 mAbs, mAbs were administered intraperitoneally to female C57B16JrJ mice at a dose of 10 mg/kg, serial blood sampling was performed over time (FIG. 4A), and ELISA was used to measure circulating free and partially bound antibody. […] Further, as shown in FIG. 4E and Table S1 below, the maximal circulating (free and partially bound) concentrations of each mAb were higher than the concentration required to bind to target (as shown by the surface plasmon resonance results of mAb binding to mouse DDR1 extracellular domain; see Table S2 below). Moreover, the maximal circulating (free and partially bound) concentrations of mAb #9H1 WT IgG1 were higher than the in vitro concentration required to inhibit Collagen I-induced phosphorylation of DDR1 in T47D cells (see FIG. 1).

[2] = biological target: T1, DDR1 (Homo sapiens, UniProt Q08345); experiment: Inhibition of collagen-induced DDR1 phosphorylation in T47D cells (Jess immunoassay); assay type: cell-based; conditions: serum-starved T47D cells, 2 h pretreatment, 50 μg/ml human collagen I for 90 minutes
T1 construct: Cultured T47D breast cancer cells were serum starved for 16 hours; endogenous in cells; host or cells: T47D breast cancer cells
T1 sequence (Q08345 19-913): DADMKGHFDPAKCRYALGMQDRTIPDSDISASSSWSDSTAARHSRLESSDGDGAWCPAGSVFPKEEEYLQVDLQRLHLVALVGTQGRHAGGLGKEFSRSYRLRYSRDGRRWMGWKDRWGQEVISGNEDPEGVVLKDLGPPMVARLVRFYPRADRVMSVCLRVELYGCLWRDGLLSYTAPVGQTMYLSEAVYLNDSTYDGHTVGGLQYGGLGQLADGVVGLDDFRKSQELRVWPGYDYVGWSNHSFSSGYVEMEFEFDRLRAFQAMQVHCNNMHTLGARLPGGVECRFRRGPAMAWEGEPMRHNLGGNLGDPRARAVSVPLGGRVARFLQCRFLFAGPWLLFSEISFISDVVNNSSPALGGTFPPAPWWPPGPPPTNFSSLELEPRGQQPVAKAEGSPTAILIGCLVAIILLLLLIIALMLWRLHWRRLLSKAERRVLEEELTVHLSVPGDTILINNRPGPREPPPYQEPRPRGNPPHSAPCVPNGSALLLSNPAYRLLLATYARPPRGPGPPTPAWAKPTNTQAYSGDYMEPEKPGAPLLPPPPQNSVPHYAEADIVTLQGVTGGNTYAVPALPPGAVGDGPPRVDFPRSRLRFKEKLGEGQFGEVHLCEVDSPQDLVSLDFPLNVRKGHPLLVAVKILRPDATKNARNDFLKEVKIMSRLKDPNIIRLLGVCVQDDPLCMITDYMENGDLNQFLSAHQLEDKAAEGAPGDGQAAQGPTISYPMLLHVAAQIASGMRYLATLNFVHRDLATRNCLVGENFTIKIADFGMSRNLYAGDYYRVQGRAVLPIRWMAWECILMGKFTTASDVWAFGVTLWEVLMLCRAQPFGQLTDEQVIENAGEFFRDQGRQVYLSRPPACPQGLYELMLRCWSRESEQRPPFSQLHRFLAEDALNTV
Description: Cells treated with 200 nM of 2.45-IN [2-(4-Bromo-2-oxo-1′-(1H-pyrazolo[4,3-b]pyridine-5-carbonyl)spiro[indoline-3,4′-piperidin]-1-yl)-N-(2,2,2-trifluoroethyl) acetamide] were used as positive control for inhibition of DDR1 phosphorylation. Cell lysate was then analyzed via Jess immunoassay (ProteinSimple).
Serum-starved T47D cells were pretreated for two hours with increasing concentrations of monoclonal antibody or IgG control, followed by stimulation with 50 μg/ml of human collagen I for 90 minutes.

B1: #33 inert IgG1: rabbit mAb #33 heavy and light chain variable domains fused to human IgG1 constant domains; SEQ ID NOs: 23 and 24 (protein)
chain 1: ELVMTQTPASVEAAVGGTVTIKCQASETISSRLAWYQQKPGQPPKLLIYQASKLPSGVPSRFKGTGSGTEYTLTISDLECADAATYYCQGCYYGGGSFYDSAFGGGTEVVVKRTVAAPSVFIFPPSDEQLKSGTASVVCLLNNFYPREAKVQWKVDNALQSGNSQESVTEQDSKDSTYSLSSTLTLSKADYEKHKVYACEVTHQGLSSPVTKSFNRGEC
chain 2: QSVEESGGRLVTPGGSLTLTCTVSGFSLSSYDMSWVRQAPGKGLEWIGISWNSGFVDYASWAKGRFSISKTSTTVDLKITSPTTEDTATYFCARLGADDIYYFNLWGPGTLVTISSASTKGPSVFPLAPSSKSTSGGTAALGCLVKDYFPEPVTVSWNSGALTSGVHTFPAVLQSSGLYSLSSVVTVPSSSLGTQTYICNVNHKPSNTKVDKRVEPKSCDKTHTCPPCPAPEAEGAPSVFLFPPKPKDTLMISRTPEVTCVVVDVSHEDPEVKFNWYVDGVEVHNAKTKPREEQYNSTYRVVSVLTVLHQDWLNGKEYKCKVSNKALPSSIEKTISKAKGQPREPQVYTLPPSREEMTKNQVSLTCLVKGFYPSDIAVEWESNGQPENNYKTTPPVLDSDGSFFLYSKLTVDKSRWQQGNVFSCSVMHEALHNHYTQKSLSLSPGK
exposure over 168 hours (in words) [1]: comparable to expected exposures for IgG1
tmax [1]: 48 h
Cmax [1]: 131.82 µg/mL
Cmax ([1]; read-out: Cmax): 650 nM

inhibition of collagen I-induced phosphorylation of DDR1 (in words) [2]: able to inhibit
B2: rabbit mAb #33: rabbit anti-DDR1 monoclonal antibody, light chain SEQ ID NO: 164, heavy chain SEQ ID NO: 165 (antibody)
heavy: QSVEESGGRLVTPGGSLTLTCTVSGFSLSSYDMSWVRQAPGKGLEWIGISWNSGFVDYASWAKGRFSISKTSTTVDLKITSPTTEDTATYFCARLGADDIYYFNLWGPGTLVTISSGQPKAPSVFPLAPCCGDTPSSTVTLGCLVKGYLPEPVTVTWNSGTLTNGVRTFPSVRQSSGLYSLSSVVSVTSSSQPVTCNVAHPATNTKVDKTVAPSTCSKPTCPPPELLGGPSVFIFPPKPKDTLMISRTPEVTCVVVDVSQDDPEVQFTWYINNEQVRTARPPLREQQFNSTIRVVSTLPIAHQDWLRGKEFKCKVHNKALPAPIEKTISKARGQPLEPKVYTMGPPREELSSRSVSLTCMINGFYPSDISVEWEKNGKAEDNYKTTPAVLDSDGSYFLYSKLSVPTSEWQRGDVFTCSVMHEALHNHYTQKSISRSPGK
light: ELVMTQTPASVEAAVGGTVTIKCQASETISSRLAWYQQKPGQPPKLLIYQASKLPSGVPSRFKGTGSGTEYTLTISDLECADAATYYCQGCYYGGGSFYDSAFGGGTEVVVKGDPVAPTVLIFPPAADQVATGTVTIVCVANKYFPDVTVTWEVDGTTQTTGIENSKTPQNSADCTYNLSSTLTLTSTQYNSHKEYTCKVTQGTTSVVQSFNRGDC
